# B1: H8 aptamer (ssDNA)
# DNA: ATACCAGCTTATTCAATTCCCCCGGCTTTGGTTTAGAGGTAGTTGCTCATTACTTGTACGCTCCGGATGAGATAGTAAGTGCAATCT
# Molecular target: human serum albumin (HSA) (Homo sapiens, UniProt P02768 25-609)
# Experiment: graphene oxide fluorescence recovery (competition with GO quencher); PBS; PBS or PBS with 2% (w/v) boric acid, ambient temperature, 5 mg/L GO stock, 30 min with HSA in the dark; pH not given
# Settings: protein: commercial; label: 5'-Cy5
# Chain of human serum albumin (HSA) (P02768 25-609): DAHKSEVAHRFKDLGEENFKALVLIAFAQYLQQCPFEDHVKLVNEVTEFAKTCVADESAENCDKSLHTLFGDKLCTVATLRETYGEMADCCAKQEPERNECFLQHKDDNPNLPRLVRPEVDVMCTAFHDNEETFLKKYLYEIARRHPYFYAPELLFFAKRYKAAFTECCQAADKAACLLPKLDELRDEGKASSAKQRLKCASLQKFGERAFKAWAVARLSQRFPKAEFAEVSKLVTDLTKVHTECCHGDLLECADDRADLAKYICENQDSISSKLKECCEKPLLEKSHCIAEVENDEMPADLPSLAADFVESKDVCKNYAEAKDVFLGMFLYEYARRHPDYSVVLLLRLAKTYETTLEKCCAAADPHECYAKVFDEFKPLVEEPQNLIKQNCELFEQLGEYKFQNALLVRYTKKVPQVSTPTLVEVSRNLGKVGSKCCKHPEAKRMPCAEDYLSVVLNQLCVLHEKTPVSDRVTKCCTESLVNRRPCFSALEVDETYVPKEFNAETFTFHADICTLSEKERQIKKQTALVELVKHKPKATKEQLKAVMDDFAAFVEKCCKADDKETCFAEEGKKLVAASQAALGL
binder,measurement,value
B1,binding result,binds

# Source: PMC9687920, “Effects of Boric Acid and Storage Temperature on the Analysis of Microalbumin Using Aptasensor-Based Fluorescent Detection”
